Measured values as given in paper PMC8670446.

Molecular target: His-tagged luciferase, heat-aggregated on the BLI sensor [luciferase: P08659]
Assay: BLI; protein aggregate immobilised on the sensor (His-tagged luciferase on Ni-NTA); Ssa1 variant together with Sis1 WT in solution, 1 µM each unless specified differently; buffer A (25 mM Hepes-KOH pH 8.0, 75 mM KCl, 15 mM MgCl2) with 2 mM DTT and 5 mM ATP; the signal is that of both chaperones

His-tagged luciferase, heat-aggregated on the BLI sensor [luciferase: P08659], sequence (P08659 whole entry): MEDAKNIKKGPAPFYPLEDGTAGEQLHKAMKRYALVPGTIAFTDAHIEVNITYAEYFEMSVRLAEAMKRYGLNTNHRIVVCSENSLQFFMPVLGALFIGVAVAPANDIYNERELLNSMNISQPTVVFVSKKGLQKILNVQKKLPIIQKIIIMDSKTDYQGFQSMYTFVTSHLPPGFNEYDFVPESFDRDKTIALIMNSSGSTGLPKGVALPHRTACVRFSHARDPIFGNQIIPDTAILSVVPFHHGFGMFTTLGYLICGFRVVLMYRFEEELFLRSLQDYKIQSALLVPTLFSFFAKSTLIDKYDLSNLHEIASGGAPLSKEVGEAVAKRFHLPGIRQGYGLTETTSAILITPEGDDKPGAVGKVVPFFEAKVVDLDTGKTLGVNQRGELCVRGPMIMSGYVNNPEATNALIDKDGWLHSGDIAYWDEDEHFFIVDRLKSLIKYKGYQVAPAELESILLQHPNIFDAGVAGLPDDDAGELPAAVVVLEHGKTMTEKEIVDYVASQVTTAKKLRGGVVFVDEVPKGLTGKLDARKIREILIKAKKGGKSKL
Ssa1, sequence (P10591 whole entry): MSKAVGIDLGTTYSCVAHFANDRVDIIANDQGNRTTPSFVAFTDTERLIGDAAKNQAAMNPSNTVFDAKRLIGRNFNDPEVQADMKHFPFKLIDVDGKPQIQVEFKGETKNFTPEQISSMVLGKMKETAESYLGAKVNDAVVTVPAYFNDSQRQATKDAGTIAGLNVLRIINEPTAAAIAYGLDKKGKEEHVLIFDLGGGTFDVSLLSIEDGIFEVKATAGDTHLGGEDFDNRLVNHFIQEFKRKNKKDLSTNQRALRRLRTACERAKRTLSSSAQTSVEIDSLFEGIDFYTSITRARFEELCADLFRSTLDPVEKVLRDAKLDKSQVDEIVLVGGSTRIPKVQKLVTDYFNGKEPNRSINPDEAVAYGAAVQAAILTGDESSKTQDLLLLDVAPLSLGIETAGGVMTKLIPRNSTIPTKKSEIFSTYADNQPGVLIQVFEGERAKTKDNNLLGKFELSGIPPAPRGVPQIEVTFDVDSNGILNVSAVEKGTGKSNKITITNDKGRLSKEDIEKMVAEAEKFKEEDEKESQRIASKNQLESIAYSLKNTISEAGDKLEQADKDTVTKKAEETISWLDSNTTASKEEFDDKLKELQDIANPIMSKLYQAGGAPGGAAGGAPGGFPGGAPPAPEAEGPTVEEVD

BLI layer thickness (Sis1 and Ssa1 together): 7 nm
Substance: Ssa1 (from UniProt P10591 1-642) (natural protein)
